Experimental findings from the domain aggregation screens of Martell et al. (2025) are described below.

This data set can be described thus: soluble fraction after stress (log2 fold change); higher = more stays soluble; pooled small domains, quantitative proteomics. To be noted: stress: 50 degC. The gist of the method:
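Pooled custom libraries of small protein domains were measured in a high-throughput format, with quantitative proteomics as the read-out. Each library was stressed at 50°C. Aggregation propensity is given as the base-two logarithm of the fold change in how much of each protein stays soluble after the stress. Higher values mean a larger share of the protein remains in solution.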
“HMQAPIFMNETDGKWYFREKYLNDNHEIAYRVHPEGYDQMEDALRNSVNALNEFAAEMKELRKQV”: the “soluble fraction (log2)” value is -0.0683.
In the case of “HMQYPSSLDSRAKQSLYDNLERNEILALALDNVIQSNKLDGWRDGGIKERKLRLAINNLLKNDEHTDNIME”, the “soluble fraction (log2)” value was -0.0155.
Turning to “HMTYIQSNLKFLRNKMNISQEELAKRLFVTHQTVSNHENGKSQPNFEMIEKYASFFNVPFEDLIHKDLSL”, the “soluble fraction (log2)” value was -0.0206.
In the case of “HMYNTDAMGVRIGELRRAKGLTQEAFAKTLGISAQAVSKWETGLGFPDISLLPMIAETLGTKIETLFGAE”, the “soluble fraction (log2)” value is -0.0826.
As to “HMHLKRQEAINLGAYLLGAELRIHRLSLEELGSERIDEMLAAINYKTLDDLLADIGLGNRPARFVARQLG”, the “soluble fraction (log2)” value was -1.53.
Take “HMSDIQKGTQINLVNEPLYVSSKTSIVSTYKTGTYYTWGFEANNRIAITNKLENIGVKGQVTGWINKP”: the “soluble fraction (log2)” value was -1.1.
As to “HMAEVRTLLVPIELAGMRFDQVLAELLPEFSRSRLAAWIKSGDALLDGHDAKPKGVVRGGEQIEIRLA”, the “soluble fraction (log2)” value stood at 0.0321.
Turning to “HMEATEFYLEDLTGQMYNDVVNDEKYAGKIVFEKEEVQSDGEEAIGQILNQRPAGNMNVRIGTTVTLVVNA”, the “soluble fraction (log2)” value was -0.0405.
As for “HMNSVAASLREISIKVSGTEDADKVSRLQELSQMPKLDASGIAEANTLLEQLRAKYGDLGLSVDTARGRIV”, the “soluble fraction (log2)” value turned out to be 0.284.
For the sequence “HMTGGIWVQIQGAVERPGVYSLPRDSRLKDLLEAAGGFGRDADTEKVNQAARLEDGAMYRVPRQGEG”, the “soluble fraction (log2)” value amounted to 0.352.
In the case of “HMTTYTGVVTGSGVNVRSGAGTSYPVVGSKTMGDVVTITETVSADGMIWGKIDIGWISMNYVRM”, the “soluble fraction (log2)” value was -0.75.
In the case of “HMKDMKISTQNILKELATNYPDQTAFRKNVIESTAKSMGYTGKDFYPMLTAETRVKIGTYDLSALLQTV”, the “soluble fraction (log2)” value was -0.178.
As to “HMDAISYTQFMEEAKQGRINKVEVQGRTLMVTPTDGKAYSLTSPGDLWMTTDLMKYGVNVYGAE”, the “soluble fraction (log2)” value is -0.00324.
Regarding “HMVPSTAVIFTELVSMRSEPATKSPVTHQLTKGTAITINEEKDGWYQVTDQTGNSGWIVKWAVKPTYFTNP”, the “soluble fraction (log2)” value was -0.0492.
With “HMDDINVSNSKNIVPNVTGHTGSKAIPVLENLGLDVQYSGFGKVTNQSIPAGTRFKKGETIYLMLE”, the “soluble fraction (log2)” value worked out at 0.0979.
As for “HMEDVLVTQIIQLKHVDANDMKTLFTPLLSRGSSQLLAYPQSNVLIITDTRSNIKKITEILDIIDKS”, the “soluble fraction (log2)” value is -0.629.
“HMAMDYEGFKKSVYALTSIDLNAYKERQMKRRIDTLIAKNKYNGYEDYTAAIKKDKALFEEFVNYLTIN”: the “soluble fraction (log2)” value was -0.284.
To “HMDTLRPLGRYQNVHLTKQELTALQSEFSDWSERIERLSSYMASTGRKYQNHAATIRLWAEKDK” belongs 0.13; to “HMLSNYIGMTLGEAKRNLGQGVNITVNGPNNDNAEVTGQDPTSGSSFDKSKDTITLTT”, 0.0581; to “HMDLDIGSVLQASRGEKKISLRQLAERTGLTASMLSQIERNLVNPSINTLKVIAAALEIPMYKFFMG”, -0.835.
As to “HMSISEADAKKIALEKVPGATDSNLRIKTDYDDGIMKYEVKIVYNEMKYEFDIDAATGTILEWESESVY”, the “soluble fraction (log2)” value was -0.659.
On to “HMGILPDDVKLNIKEAKKIGFPIMLKAIHGGGGRGMMIVQSEDEFADAMKITKTEAKNSFGNGDLYFEKFF”, for which the “soluble fraction (log2)” value came to 0.238.
To “HMKGKWKPIILWQLSKAPQSLSGLRHSIAGISQKMLIQHLNELIHFGFVVRTTFEGYPLKVEYDLTDRGR” belongs -0.231.
Turning to “HMGTPKMPLSLYLSMVENLRSLKRFALVNQQVKDGFVFFNDVAGIKRLQELLNYHNTGEKPSE”, the “soluble fraction (log2)” value was -1.39.
With “HMRTSPGADYEKTYYTIQSGDNLGAIAEKMGVSVADLKDWNDISGTKIYAGKKLVIYVKKGST”, the “soluble fraction (log2)” value was 0.183.
With “HMNADAPWSPFSPGFTGPMNRPVIGLVTKADLANPQRISLVESWLVQAGAQKVFVTSALENTGVDEMFIFL”, the “soluble fraction (log2)” value is -0.124.
For the sequence “HMDSRQIIAALQARYADETGITALKIKFNNVLGYFVDVPARYGDPLMKPPLSETFIHRQTLASNVRF”, the “soluble fraction (log2)” value was -0.0732.
As for “HMKELVAGQTVRVHHSIGFGQTGTVTALNSLKTTLPNGLRTNTASILFQNNEKVVLPISNFDIIES”, the “soluble fraction (log2)” value is -0.139.
For “HMTTGTVKWFNDAKGFGFITPDDRSVDVFVHYSNIVGQSGRRTLMEGERVEYEAIEGPKGPQATDVARA”, the “soluble fraction (log2)” value was -0.304.
As for “HMDISPAAKQRLALIQPLLEKNAEAITDRKLRNAVAKDIANNQNTTVRRVLRLYYRYLATGQVM”, the “soluble fraction (log2)” value came to 0.0392.
Consider “HMGASYSQFLDQVDSGNVQKVAFGGDMRGGTSQLTYTTRGGQSSTITAPFDRDLINVLRTKNVEIVQEEP”, for which the “soluble fraction (log2)” value came to 0.139.
For “HMEFLLAIQPFVLLTDHANLTFLREQTDSMMKRIQINISGFEIEFRYVPGLTNILPDKMSRV” the value was -0.0431; for “HMDILPRMVASEMRAVGVPPERMTREEKGTVIRNLMNAGIHQMKGAVVEIARQLHLSEPTVYRYIKREKG”, -0.327; for “HMKDYQGEISVVASGERIDVYLFNYFNLFSRTKIKNHIKNGNILVNENIISPSYILKQNDKIAFNLGAPY”, -2.39.
In the case of “HMSLTAQVFTDRGKVLLSENKFTEAIDQFTKALAMDKVYIEALNRRIEAYQHLGLTELAAKDEALLGTL”, the “soluble fraction (log2)” value was -0.755.
“HMLESPVEAIIRQIKQLITNGKLKPGDRLPAERLLAENFGVGRGYVREAIMKLEFFGLLKTSPQSGTYVAG”: the “soluble fraction (log2)” value is -0.748.
As to “HMRKMNDAVFYVEMSRPKRGYYTATYKLITRNPNSLPEHEITRRFFQMLEETIRKNPPYYLWTH”, the “soluble fraction (log2)” value is -0.328.
With “HMVVEGMQFDRGYLSQYMVTDNEKMVADLENPYILITDKKISNIQEILPLLESILQSSRPLLIIADD”, the “soluble fraction (log2)” value was -0.214.
As to “HMKEQYDLNDREQQFISLVANGLNNKEIAETLFLSEGTVRNYLSNLLDKLGLRDRTQLAIFFYQHL”, the “soluble fraction (log2)” value was -0.953.
For “HMEKGNEEALEQAREAILAVQSGEKYVDLDPANAAIRRKQHALAQASDLVSQSYGKDPNRYVRIFR” the value was 0.34.
On to “HMAQQEMEIIPLRHRQVEQVMPTLRPLLEPGAALSGMNNQLILRASRKNREEIKQALAVIDT”, for which the “soluble fraction (log2)” value was determined as 0.172.
Turning to “HMVAGGTVSRKLSIETGLPKRKSLIGSWLDQNSVWHNIISVRHRNGYGDGVNYGFYLRSLLTSEGNLAW”, the “soluble fraction (log2)” value is -0.114.
Take “HMITALLPGTVLIREFDGRDYHVTVATDGRFEMDGHKYPSLSAVAKHITGTQWSGPAFFGLN”: the “soluble fraction (log2)” value was -1.75.
Take “HMVIANADVRAKFSKGKDSFVKYYFKEKVLKDGFTEEVKNNIVQALFYLQIVTRIDGESGVLIIDY”: the “soluble fraction (log2)” value was -0.0492.
To “HMSLPKIVVPTDVTVSQLAKYLEVDAISIIKQLFGMGVVASLNQRLEDEIIQLIGNEFGKEIIFSE” belongs -0.054; to “HMVGKGASIILDRVNLPQYLEKFNEDGFDTIESLKNLNEIDLKEMGVKKGHIRVILNYLHEEY”, -0.501.
Consider “HMQSNIHELQKKLNEALQALSEDHRAVVTMFDIQGMPHAEISKILGVSEGTVRSRLYYAHQQLQGHL”, for which the “soluble fraction (log2)” value was -1.03.
For “HMPPSRFNELSMWFQEQLTEAGLKVDSGALKMLIEWLGQDQARLPSIIEVLVSTYGTKKKLTVDEIEPFL” the value was 0.234; for “HMNYSKQRETILKVLRSTRSHPSVNWIYENVKKEIPDVGLATVYRNLKQLEAAGEIMRIQGDFPEERWDGF”, -0.911; for “HMGGEHPIPEDWAVNEANYEHGAKFYGYTRAHVDAEAQAFRDQYAANGKKYVDWDAHFRTFMRWQNERRYG”, -0.111.
